Target: 重组人OPN-R (OPN-N端蛋白, 重组骨桥蛋白N端活性结构域 osteopontin I17-R167) (human)
Test: ForteBio BLI, biotinylated OPN-R on streptavidin sensor, antibody at 50-300 nmol/L, 1:1 model

重组人OPN-R (OPN-N端蛋白, 重组骨桥蛋白N端活性结构域 osteopontin I17-R167) (human), sequence (chain, as listed by the source): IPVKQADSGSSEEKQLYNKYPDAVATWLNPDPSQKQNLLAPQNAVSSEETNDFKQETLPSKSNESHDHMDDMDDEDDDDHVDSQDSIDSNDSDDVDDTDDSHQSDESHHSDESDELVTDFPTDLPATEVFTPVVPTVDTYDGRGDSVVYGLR

B1: 抗OPN嵌合抗体(抗体72B) (antibody, V domains shown)
VH: EVMLVESGGGLLKPGGSLKLSCAASGFTFSSYAMSWVRQTPEKRLEWVATITSGGSYTNYSDSVKGRITISRDNAKNTLYLQMSSLRSEDTAMYYCAREGPAWFAYWGQGTLVTVSA
VL: DIVMTQTPLSLPVSLGDQASISCRSSQSIVHSNGNTYLEWYLQKPGQSPKLLIYKVSNRFSGVPDRFSGSGSGTDFTLKISRVEAEDLGVYYCFQGSHVPPTFGGGTKLEIKR
notes: Mouse/human IgG1 chimera made by overlap PCR and expressed in HEK293E; also called 72B抗体; OPN-Ab(72B)
  Kd: 4.55 nM
